B1: Protein PTHB1 (Homo sapiens), Q3SYG4 (parent)
chain: MSLFKARDWWSTILGDKEEFDQGCLCLANVDNSGNGQDKIIVGSFMGYLRIFSPHPAKTGDGAQAEDLLLEVDLRDPVLQVEVGKFVSGTEMLHLAVLHSRKLCVYSVSGTLGNVEHGNQCQMKLMYEHNLQRTACNMTYGSFGGVKGRDLICIQSMDGMLMVFEQESYAFGRFLPGFLLPGPLAYSSRTDSFLTVSSCQQVESYKYQVLAFATDADKRQETEQQKLGSGKRLVVDWTLNIGEQALDICIVSFNQSASSVFVLGERNFFCLKDNGQIRFMKKLDWSPSCFLPYCSVSEGTINTLIGNHNNMLHIYQDVTLKWATQLPHIPVAVRVGCLHDLKGVIVTLSDDGHLQCSYLGTDPSLFQAPNVQSRELNYDELDVEMKELQKIIKDVNKSQGVWPMTEREDDLNVSVVVSPNFDSVSQATDVEVGTDLVPSVTVKVTLQNRVILQKAKLSVYVQPPLELTCDQFTFEFMTPDLTRTVSFSVYLKRSYTPSELEGNAVVSYSRPTDRNPDGIPRVIQCKFRLPLKLICLPGQPSKTASHKITIDTNKSPVSLLSLFPGFASQSDDDQVNVMGFHFLGGARITVLASKTSQRYRIQSEQFEDLWLITNELILRLQEYFEKQGVKDFACSFSGSIPLQEYFELIDHHFELRINGEKLEELLSERAVQFRAIQRRLLARFKDKTPAPLQHLDTLLDGTYKQVIALADAVEENQGNLFQSFTRLKSATHLVILLIALWQKLSADQVAILEAAFLPLQEDTQELGWEETVDAAISHLLKTCLSKSSKEQALNLNSQLNIPKDTSQLKKHITLLCDRLSKGGRLCLSTDAAAPQTMVMPGGCTTIPESDLEERSVEQDSTELFTNHRHLTAETPRPEVSPLQGVSE
partner: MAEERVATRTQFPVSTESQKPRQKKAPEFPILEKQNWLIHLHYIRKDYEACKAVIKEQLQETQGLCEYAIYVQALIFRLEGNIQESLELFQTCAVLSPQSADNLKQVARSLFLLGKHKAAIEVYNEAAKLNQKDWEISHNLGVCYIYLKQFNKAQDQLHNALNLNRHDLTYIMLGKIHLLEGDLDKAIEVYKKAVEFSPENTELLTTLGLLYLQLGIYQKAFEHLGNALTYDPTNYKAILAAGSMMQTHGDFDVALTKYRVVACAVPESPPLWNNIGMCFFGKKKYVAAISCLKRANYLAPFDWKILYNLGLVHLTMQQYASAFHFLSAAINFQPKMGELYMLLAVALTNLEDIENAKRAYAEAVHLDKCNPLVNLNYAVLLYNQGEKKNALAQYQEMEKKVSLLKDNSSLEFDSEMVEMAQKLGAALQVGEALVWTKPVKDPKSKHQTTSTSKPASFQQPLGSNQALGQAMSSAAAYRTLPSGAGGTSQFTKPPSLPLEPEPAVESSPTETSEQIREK

Variants of: B1
Details: with bbs4_human BBS4, Q96RK4

Effect of a mutation on the interaction, with no effect:
A872K
A872E
E862K
E862A
S880A
S880E
S880K
F864A
F864E
F864K
V856A
V856K
V856E
E878K
E878A
E852K
E852A
T871E
T871K
T871A
L851K
L851E
L851A
L882A
L882K
L882E
H869K
H869E
H869A
P881K
P881E
P881A
L870E
L870K
L870A
E857A
E857K
S855E
S855A
S855K
P875K
P875E
P875A
Q858K
Q858E
Q858A
H867E
H867K
H867A
E853K
E853A
D850E
D850K
D850A
L863K
L863A
L863E
V879K
V879A
V879E
G884K
G884E
G884A
E873K
E873A
T865E
T865A
T865K
N866K
N866A
N866E
Q883K
Q883A
Q883E
E887A
E887K
V885E
V885A
V885K
R868A
R868K
R868E
T861K
T861E
T861A
P877A
P877E
P877K
D859A
D859E
D859K
S860E
S860A

Source: IntAct's records for PubMed 29039417
